Data: patent US20150368661A1

Molecular target: recombinant hemagglutinin (HA) (A/New Caledonia/20/99; Protein Sciences) (influenza A virus A/New Caledonia/20/99 (H1N1))

plant-produced anti-influenza bnMAb CR6261 IgG1 (expressed in N. benthamiana) (antibody)
Kd: 0.055 nM
